In publication PMC9464890, “Exosite binding modulates the specificity of the immunomodulatory enzyme ScpA, a C5a inactivating bacterial protease” (Computational and Structural Biotechnology Journal, 2022):

Experiments:
ScpA_(S512A,D783A) = target: T1, ScpA_(S512A,D783A) (Streptococcus pyogenes, UniProt P15926 31-1032, S512A | D783A); assay: SPR; BIAcore X100, NTA sensor chip with about 20-25 RU of immobilised His-tagged C5a form (ligand), ScpA form flowed as ligate at 30 uL/min, 25 °C, 10 mM Hepes-KOH pH 7.4, 150 mM NaCl, 0.005% Tween 20, 50 uM EDTA; global fit, 1:1 Langmuir model with drifting baseline; triplicate; conditions: both partners purified
T1 construct: Made by QuikChange II from pGEX ScpA(31-1032); The active form D783A (S512 intact) was used for activity assays and for the crystal structure 7YZX; also called D783A_(S512A); source: details in Supplemental Information SI1 and SI2
T1 sequence (looked up): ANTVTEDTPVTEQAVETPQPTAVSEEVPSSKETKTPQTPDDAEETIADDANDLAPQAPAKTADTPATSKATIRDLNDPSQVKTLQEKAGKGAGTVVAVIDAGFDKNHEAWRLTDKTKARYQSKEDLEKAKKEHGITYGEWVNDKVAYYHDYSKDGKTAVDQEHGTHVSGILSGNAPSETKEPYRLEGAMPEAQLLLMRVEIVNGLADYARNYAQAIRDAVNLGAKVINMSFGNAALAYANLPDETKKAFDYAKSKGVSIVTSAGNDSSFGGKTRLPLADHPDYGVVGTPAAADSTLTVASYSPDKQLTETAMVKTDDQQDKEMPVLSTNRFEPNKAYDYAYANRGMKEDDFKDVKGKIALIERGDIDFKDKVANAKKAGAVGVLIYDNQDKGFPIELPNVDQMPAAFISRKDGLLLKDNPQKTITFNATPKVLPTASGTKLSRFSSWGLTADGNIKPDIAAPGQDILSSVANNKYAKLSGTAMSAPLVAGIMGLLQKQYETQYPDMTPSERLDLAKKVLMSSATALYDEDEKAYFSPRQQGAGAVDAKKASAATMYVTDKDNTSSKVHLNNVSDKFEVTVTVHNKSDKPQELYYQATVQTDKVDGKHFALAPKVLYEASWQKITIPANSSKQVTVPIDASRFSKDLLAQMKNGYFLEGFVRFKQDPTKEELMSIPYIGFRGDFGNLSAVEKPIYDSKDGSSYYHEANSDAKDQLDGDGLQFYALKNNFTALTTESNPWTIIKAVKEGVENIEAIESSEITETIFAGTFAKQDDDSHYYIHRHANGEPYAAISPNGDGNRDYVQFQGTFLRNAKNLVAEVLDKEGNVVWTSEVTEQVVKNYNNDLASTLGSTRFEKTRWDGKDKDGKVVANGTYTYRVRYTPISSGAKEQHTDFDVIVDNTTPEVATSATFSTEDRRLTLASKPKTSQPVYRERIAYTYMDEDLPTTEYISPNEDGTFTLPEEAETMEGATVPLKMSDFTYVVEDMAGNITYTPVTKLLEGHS

ScpA_(S512A) = target: T2, ScpA_(S512A) (Streptococcus pyogenes, UniProt P15926 31-1032, S512A); assay: as above; conditions: both partners purified
T2 construct: Plasmid pGEX ScpA(31-1032) was the template; also called C5a peptidase from Streptococcus pyogenes, active site serine to alanine mutant; source: details in Supplemental Information SI1 and SI2
T2 sequence (looked up): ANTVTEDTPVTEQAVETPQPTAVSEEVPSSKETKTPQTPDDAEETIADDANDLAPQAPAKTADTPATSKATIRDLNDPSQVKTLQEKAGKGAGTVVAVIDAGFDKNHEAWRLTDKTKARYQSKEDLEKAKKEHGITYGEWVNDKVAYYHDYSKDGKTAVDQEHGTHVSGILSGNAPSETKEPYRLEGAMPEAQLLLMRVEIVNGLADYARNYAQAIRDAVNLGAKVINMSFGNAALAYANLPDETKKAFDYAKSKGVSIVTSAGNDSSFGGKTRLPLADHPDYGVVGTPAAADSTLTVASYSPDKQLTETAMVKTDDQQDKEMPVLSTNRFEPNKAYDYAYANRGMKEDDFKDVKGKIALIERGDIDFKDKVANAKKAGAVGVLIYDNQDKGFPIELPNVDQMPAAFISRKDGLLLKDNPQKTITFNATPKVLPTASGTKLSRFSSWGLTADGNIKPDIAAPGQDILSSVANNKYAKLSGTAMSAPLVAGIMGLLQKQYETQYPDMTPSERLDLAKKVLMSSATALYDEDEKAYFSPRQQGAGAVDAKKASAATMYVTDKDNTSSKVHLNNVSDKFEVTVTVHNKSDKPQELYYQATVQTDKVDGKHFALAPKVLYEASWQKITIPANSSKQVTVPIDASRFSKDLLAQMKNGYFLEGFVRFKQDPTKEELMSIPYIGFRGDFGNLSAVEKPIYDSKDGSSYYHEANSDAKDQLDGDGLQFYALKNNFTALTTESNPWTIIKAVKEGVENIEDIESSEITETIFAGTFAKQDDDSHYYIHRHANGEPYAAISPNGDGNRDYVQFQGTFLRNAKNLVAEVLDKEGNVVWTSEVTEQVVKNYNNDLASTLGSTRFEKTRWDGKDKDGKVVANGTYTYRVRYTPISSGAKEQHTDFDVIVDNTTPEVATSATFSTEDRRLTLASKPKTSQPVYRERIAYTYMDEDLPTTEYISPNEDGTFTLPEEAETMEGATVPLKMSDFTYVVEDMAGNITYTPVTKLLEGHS

B1: Recombinant human C5a (rhC5a) (natural protein, UniProt P01031 678-751, looked up)
chain: TLQKKIEEIAAKYKHSVVKKCCYDGACVNNDETCEQRAARISLGPRCIKAFTECCVVASQLRANISHKDMQLGR
notes: human complement C5a anaphylatoxin, residues 1-74 (core 1-67 and tail 68-74); also called full length rhC5a; substrate; not shown: His6, N-terminal, kept
ScpA_(S512A,D783A)
  Kd: 314 nM
  koff: 0.0237 s⁻¹
  kon: 75400 M⁻¹ s⁻¹
ScpA_(S512A)
  Kd: 34 nM
  koff: 0.007 s⁻¹
  kon: 209000 M⁻¹ s⁻¹
